Test results from IntAct's records for PubMed 17690245.

Legend:
[1] = target: cdk9_human CDK9 (UniProt P50750)
[2] = target: ccnt1_human CCNT1 (UniProt O60563)

effect of a mutation on the interaction [1]: disrupting interaction
effect of a mutation on the interaction [2]: disrupting interaction
Substance: Bromodomain-containing protein 4 (Homo sapiens) (from UniProt O60885-1) R1337P
